Our source for the Kd values is paper PMC2836974 (Molecular Biology of the Cell, 2010).

The target of test [1] is T1, C-terminal-truncated Rap1 (amino acids 1-169), GST fusion, loaded with mGppNHp (Dictyostelium discoideum, UniProt P18613 1-169).
T1 sequence: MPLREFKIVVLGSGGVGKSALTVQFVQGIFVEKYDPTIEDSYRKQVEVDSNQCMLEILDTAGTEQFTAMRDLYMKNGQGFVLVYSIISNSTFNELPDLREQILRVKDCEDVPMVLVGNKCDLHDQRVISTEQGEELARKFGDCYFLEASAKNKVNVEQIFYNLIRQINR
Put plainly: guanine nucleotide dissociation inhibition.

Test [2] concerns the target RasG, GST fusion, loaded with mGppNHp (Dictyostelium discoideum, UniProt P15064 1-189). Put plainly: guanine nucleotide dissociation inhibition.

Sequence of RasG, GST fusion, loaded with mGppNHp (P15064 whole entry, the tested form may be a part): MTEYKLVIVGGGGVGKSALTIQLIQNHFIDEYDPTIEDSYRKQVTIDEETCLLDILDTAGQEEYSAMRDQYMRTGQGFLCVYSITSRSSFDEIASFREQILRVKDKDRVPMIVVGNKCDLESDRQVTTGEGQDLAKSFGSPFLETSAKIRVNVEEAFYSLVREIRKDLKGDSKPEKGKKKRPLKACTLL

B1: PI3K2-RBD (RBD domain of PI3K2, amino acids 757-918) (domain or fragment)
chain: GHIQAELEIFELIGTSFTRVLDQGQEVVSFRRDFAQFRLSNFTSTRNDLSQMIYVSSEPLPLTIPNKITIMVLLPGDGKIIKRVDCCPNSSVGDVKKEIFKKFAMIDRVHTQGKTQDDFVLKVTGFREYILCIHELGNLTSRQRFYPTGSGGDFSLMDYDYI
For the molecule B1, the Kd turned out to be 40 µM in test [1] and 24 µM in test [2].
